Source: article PMC8551276

Columns and labels:
[1] = molecular target: HIV-1 HXB2 Env glycoprotein labelled with super folder GFP (GFPOPT) in the V4 loop of gp120, on pseudovirions (HIV-1 group M subtype B, isolate HXB2) (UniProt P04578)
[2] = molecular target: HIV-1 HXB2 Env glycoprotein labelled with super folder GFP (GFPOPT) in the V4 loop of gp120, on pseudovirions (HIV-1 HXB2) (UniProt P04578); assay: FRET or BRET; single-virus Eapp traces (3 s per frame, 5 min), dwell times as cumulative distribution functions; mature virions in vitro, unliganded; room temperature
[3] = molecular target: HIV-1 HXB2 Env glycoprotein labelled with super folder GFP (GFPOPT) in the V4 loop of gp120, on pseudovirions (HIV-1 HXB2) (UniProt P04578); assay: FRET or BRET
[4] = molecular target: HIV-1 HXB2 Env glycoprotein labelled with super folder GFP (GFPOPT) in the V4 loop of gp120, on pseudovirions (HIV-1 HXB2) (UniProt P04578); assay: FRET or BRET; single-virus Eapp traces, dwell times as CDF; virions on MT-4 T cells with 100 µg/mL PGT145
[5] = molecular target: HIV-1 HXB2 Env glycoprotein labelled with super folder GFP (GFPOPT) in the V4 loop of gp120, on pseudovirions (HIV-1 HXB2) (UniProt P04578); assay: FRET or BRET; single-virus Eapp traces, dwell times as CDF; mature virions engaged with living MT-4 T cells; room temperature
[6] = molecular target: HIV-1 HXB2 Env glycoprotein labelled with super folder GFP (GFPOPT) in the V4 loop of gp120, on pseudovirions (HIV-1 HXB2) (UniProt P04578)

anti-HIV-1 gp120 monoclonal, b12 (antibody)
CDF average lifetime of the closed Env conformation, virions on MT-4 T cells with 100 µg/mL b12 (63 s without) [1]: 125 s
CDF average lifetime of the open Env conformation, virions on MT-4 T cells with 100 µg/mL b12 (168 s without) [1]: 61 s

HIV-1 HXB2 Env glycoprotein labelled with super folder GFP (GFPOPT) in the V4 loop of gp120, on pseudovirions (from UniProt P04578) (complex)
CDF average lifetime of the high FRET regime (Env-Env interactions) [2]: 68 s
CDF average lifetime of the high FRET regime (Env-Env interactions), with sCD4 [3]: 16 s
CDF average lifetime of the high FRET regime (Env-Env interactions), on T cells with PGT145 [4]: 10 s
CDF average lifetime of the high FRET regime (Env-Env interactions), virions on MT-4 T cells [5]: 53 s

Human soluble CD4 recombinant protein (sCD4_(D1-D4)) (domain or fragment)
CDF average lifetime of the closed Env conformation (0.12<Eapp<0.23) on mature virions with 10 µg/mL sCD4 (154 s without) [6]: 75 s
CDF average lifetime of the open Env conformation (Eapp<0.12) on mature virions with 10 µg/mL sCD4 (84 s without) [6]: 241 s
